From patent publication US20020173462A1

How the values were obtained:
human fibrinogen (human) = human fibrinogen (human) (UniProt P02671); test: affinity blot, dilution series of antigen and fibrinogen
[1] = biological target: human prothrombin (human) (UniProt P00734); test: affinity blot, dilution series of antigen and prothrombin

“60 kDa fibrinogen-binding protein (Eap, extracellular adherence protein)” gave an amount of protein detected with 10 ng/ml of fibrinogen (human fibrinogen (human)) of 0.1 ng and an amount of protein detected with 10 ng/ml of prothrombin [1] of 0.1 ng.

With “87 kDa fibrinogen-binding protein (coagulase)” the amount of protein detected with 10 ng/ml of fibrinogen (human fibrinogen (human)) was 0.1 ng.
